According to patent US20140087995A1 (published 2014):
Numbered stars: 1 amine (or outer) side, 2 acyl side, 3 side chain; on linkers, the order of the positions; unused ones are H or OH. Bridge positions count the residues as written; N and C are the ends. Side chains are listed from the residue outwards. Ends that are not written are not given here. * marks the point of attachment. C20 diacid = O=C(O)CCCCCCCCCCCCCCCCCCC(=O)*; γGlu = O=C(O)[C@H](CCC(=O)[*:2])N[*:1]

T1: human calcitonin receptor (human, UniProt P30988 25-474)
T1 construct: whole, on cells; Assay used cell membranes, not intact cells; also called hCTR; hCT
T1 sequence (looked up): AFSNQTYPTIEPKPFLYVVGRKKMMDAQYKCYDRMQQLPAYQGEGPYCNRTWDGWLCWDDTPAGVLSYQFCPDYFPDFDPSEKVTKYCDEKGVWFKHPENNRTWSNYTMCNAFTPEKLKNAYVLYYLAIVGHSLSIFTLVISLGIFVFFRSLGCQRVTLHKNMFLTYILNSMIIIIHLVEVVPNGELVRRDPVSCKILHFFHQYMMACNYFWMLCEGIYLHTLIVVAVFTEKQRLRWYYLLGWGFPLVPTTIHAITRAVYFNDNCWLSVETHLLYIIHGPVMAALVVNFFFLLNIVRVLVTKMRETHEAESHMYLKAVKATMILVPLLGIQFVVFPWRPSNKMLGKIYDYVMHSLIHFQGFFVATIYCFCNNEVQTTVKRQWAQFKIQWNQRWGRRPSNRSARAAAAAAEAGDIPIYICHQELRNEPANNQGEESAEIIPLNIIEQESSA

T2: human amylin receptor (amylin 3(a) receptor: human calcitonin receptor with RAMP-3) (human, UniProt P30988 25-474; O60896 24-148)
T2 construct: whole, on cells; Assay used cell membranes of the Amylin 3(a)/CRE-luc BHK cells, not intact cells; also called hAmylin-R; hAmylinR
T2 sequence (looked up) 1: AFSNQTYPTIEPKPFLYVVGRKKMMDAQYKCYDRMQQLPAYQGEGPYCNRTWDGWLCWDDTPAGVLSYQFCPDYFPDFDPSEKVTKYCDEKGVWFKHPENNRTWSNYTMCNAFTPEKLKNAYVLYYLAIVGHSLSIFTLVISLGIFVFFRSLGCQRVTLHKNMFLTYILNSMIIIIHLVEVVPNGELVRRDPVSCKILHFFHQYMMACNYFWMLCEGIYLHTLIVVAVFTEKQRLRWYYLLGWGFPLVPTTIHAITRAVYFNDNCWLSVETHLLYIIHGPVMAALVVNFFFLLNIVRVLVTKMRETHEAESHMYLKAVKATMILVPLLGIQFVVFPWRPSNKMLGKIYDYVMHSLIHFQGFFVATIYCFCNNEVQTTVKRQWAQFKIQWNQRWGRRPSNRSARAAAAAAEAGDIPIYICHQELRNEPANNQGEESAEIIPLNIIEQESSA
T2 sequence (looked up) 2: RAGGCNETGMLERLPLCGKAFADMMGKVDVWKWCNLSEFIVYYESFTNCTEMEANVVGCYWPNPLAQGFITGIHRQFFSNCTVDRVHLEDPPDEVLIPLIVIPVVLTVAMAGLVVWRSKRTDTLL


Assays:
[1] = biological target: T1, human calcitonin receptor; assay: SPA competition with 125I-calcitonin on membranes of BHK cells with human calcitonin receptor (Assay VII)
Outline: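 BHK hCTR membranes 35 ng/μL + SPA beads 0.05 mg/well; buffer 50 mM Hepes pH 7.4, 1 mM CaCl2, 5 mM MgCl₂, 0.1% OA, 0.02% Tween20. 120 min, 25° C., shaking. Scintillation count; IC50 by one-site binding competition.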

[2] = biological target: T2, human amylin receptor (amylin 3(a) …); assay: SPA competition with 125I-rat amylin on membranes of BHK cells with human calcitonin receptor and RAMP-3 (Assay V)
Outline: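 One-site competition analysis of SPA counts yielded IC₅₀ as a measure of affinity. Membranes were at 35 ng/μL final; incubation was 120 min at 25° C, pH 7.4.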

[3] = biological target: T1, human calcitonin receptor; assay: ratio IC50 hCTR / IC50 hAmylin-R (reference: human amylin receptor), SPA competition assays
Outline: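 Competition binding by SPA uses membrane preparations (35 ng/μL final) in pH 7.4 Hepes buffer with 1 mM CaCl2 and 5 mM MgCl₂. Incubation lasts 120 min at 25° C, and IC₅₀ comes from one-site fitting.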

Row | Binder | IC50 [1] [nM] | IC50 [2] [nM] | Ratio hCT/hAmylin binding [3]
1 | K([γGlu-C20 diacid])CNTATCATQRLAEFLRHSSPNFGAIPSSTNVGPETY-NH2 (disulfide 2-7; N-terminus assumed; SMILES CC[C@H](C)[C@H](NC(=O)[C@H](C)NC(=O)CNC(=O)[C@H](Cc1ccccc1)NC(=O)[C@H](CC(N)=O)NC(=O)[C@@H]1CCCN1C(=O)[C@H](CO)NC(=O)[C@H](CO)NC(=O)[C@H](Cc1c[nH]cn1)NC(=O)[C@H](CCCNC(=N)N)NC(=O)[C@H](CC(C)C)NC(=O)[C@H](Cc1ccccc1)NC(=O)[C@H](CCC(=O)O)NC(=O)[C@H](C)NC(=O)[C@H](CC(C)C)NC(=O)[C@H](CCCNC(=N)N)NC(=O)[C@H](CCC(N)=O)NC(=O)[C@@H](NC(=O)[C@H](C)NC(=O)[C@@H]1CSSC[C@H](NC(=O)[C@@H](N)CCCCNC(=O)CC[C@H](NC(=O)CCCCCCCCCCCCCCCCCCC(=O)O)C(=O)O)C(=O)N[C@@H](CC(N)=O)C(=O)N[C@@H]([C@@H](C)O)C(=O)N[C@@H](C)C(=O)N[C@@H]([C@@H](C)O)C(=O)N1)[C@@H](C)O)C(=O)N1CCC[C@H]1C(=O)N[C@@H](CO)C(=O)N[C@@H](CO)C(=O)N[C@H](C(=O)N[C@@H](CC(N)=O)C(=O)N[C@H](C(=O)NCC(=O)N1CCC[C@H]1C(=O)N[C@@H](CCC(=O)O)C(=O)N[C@H](C(=O)N[C@@H](Cc1ccc(O)cc1)C(N)=O)[C@@H](C)O)C(C)C)[C@@H](C)O) | 1.86 | 0.14 | 13.3
2 | K([γGlu-C20 diacid])CNTATCATQRLAEFLRHSSPNFGAIPSSTNVGPHTY-NH2 (disulfide 2-7) | 3.8 | 0.179 | 21.2
3 | K([γGlu-C20 diacid])CNTATCATQRLAHFLRHSSPNFGAIPSSTNVGRNTY-NH2 (disulfide 2-7; N-terminus assumed; SMILES CC[C@H](C)[C@H](NC(=O)[C@H](C)NC(=O)CNC(=O)[C@H](Cc1ccccc1)NC(=O)[C@H](CC(N)=O)NC(=O)[C@@H]1CCCN1C(=O)[C@H](CO)NC(=O)[C@H](CO)NC(=O)[C@H](Cc1c[nH]cn1)NC(=O)[C@H](CCCNC(=N)N)NC(=O)[C@H](CC(C)C)NC(=O)[C@H](Cc1ccccc1)NC(=O)[C@H](Cc1c[nH]cn1)NC(=O)[C@H](C)NC(=O)[C@H](CC(C)C)NC(=O)[C@H](CCCNC(=N)N)NC(=O)[C@H](CCC(N)=O)NC(=O)[C@@H](NC(=O)[C@H](C)NC(=O)[C@@H]1CSSC[C@H](NC(=O)[C@@H](N)CCCCNC(=O)CC[C@H](NC(=O)CCCCCCCCCCCCCCCCCCC(=O)O)C(=O)O)C(=O)N[C@@H](CC(N)=O)C(=O)N[C@@H]([C@@H](C)O)C(=O)N[C@@H](C)C(=O)N[C@@H]([C@@H](C)O)C(=O)N1)[C@@H](C)O)C(=O)N1CCC[C@H]1C(=O)N[C@@H](CO)C(=O)N[C@@H](CO)C(=O)N[C@H](C(=O)N[C@@H](CC(N)=O)C(=O)N[C@H](C(=O)NCC(=O)N[C@@H](CCCNC(=N)N)C(=O)N[C@@H](CC(N)=O)C(=O)N[C@H](C(=O)N[C@@H](Cc1ccc(O)cc1)C(N)=O)[C@@H](C)O)C(C)C)[C@@H](C)O, also called compound 85) | 80.4 | 0.876 | 91.8
4 | K([γGlu-C20 diacid])CNTATCATQRLAHFLRHSSPNFGAIPSSTNVGHNTY-NH2 (disulfide 2-7; N-terminus assumed; SMILES CC[C@H](C)[C@H](NC(=O)[C@H](C)NC(=O)CNC(=O)[C@H](Cc1ccccc1)NC(=O)[C@H](CC(N)=O)NC(=O)[C@@H]1CCCN1C(=O)[C@H](CO)NC(=O)[C@H](CO)NC(=O)[C@H](Cc1c[nH]cn1)NC(=O)[C@H](CCCNC(=N)N)NC(=O)[C@H](CC(C)C)NC(=O)[C@H](Cc1ccccc1)NC(=O)[C@H](Cc1c[nH]cn1)NC(=O)[C@H](C)NC(=O)[C@H](CC(C)C)NC(=O)[C@H](CCCNC(=N)N)NC(=O)[C@H](CCC(N)=O)NC(=O)[C@@H](NC(=O)[C@H](C)NC(=O)[C@@H]1CSSC[C@H](NC(=O)[C@@H](N)CCCCNC(=O)CC[C@H](NC(=O)CCCCCCCCCCCCCCCCCCC(=O)O)C(=O)O)C(=O)N[C@@H](CC(N)=O)C(=O)N[C@@H]([C@@H](C)O)C(=O)N[C@@H](C)C(=O)N[C@@H]([C@@H](C)O)C(=O)N1)[C@@H](C)O)C(=O)N1CCC[C@H]1C(=O)N[C@@H](CO)C(=O)N[C@@H](CO)C(=O)N[C@H](C(=O)N[C@@H](CC(N)=O)C(=O)N[C@H](C(=O)NCC(=O)N[C@@H](Cc1c[nH]cn1)C(=O)N[C@@H](CC(N)=O)C(=O)N[C@H](C(=O)N[C@@H](Cc1ccc(O)cc1)C(N)=O)[C@@H](C)O)C(C)C)[C@@H](C)O, also called compound 81) | 23.6 | 0.271 | 87.2
5 | K([γGlu-C20 diacid])CNTATCATQRLAHFLRHSSPNFGAIPSSTPVGPNTY-NH2 (disulfide 2-7; N-terminus assumed; SMILES CC[C@H](C)[C@H](NC(=O)[C@H](C)NC(=O)CNC(=O)[C@H](Cc1ccccc1)NC(=O)[C@H](CC(N)=O)NC(=O)[C@@H]1CCCN1C(=O)[C@H](CO)NC(=O)[C@H](CO)NC(=O)[C@H](Cc1c[nH]cn1)NC(=O)[C@H](CCCNC(=N)N)NC(=O)[C@H](CC(C)C)NC(=O)[C@H](Cc1ccccc1)NC(=O)[C@H](Cc1c[nH]cn1)NC(=O)[C@H](C)NC(=O)[C@H](CC(C)C)NC(=O)[C@H](CCCNC(=N)N)NC(=O)[C@H](CCC(N)=O)NC(=O)[C@@H](NC(=O)[C@H](C)NC(=O)[C@@H]1CSSC[C@H](NC(=O)[C@@H](N)CCCCNC(=O)CC[C@H](NC(=O)CCCCCCCCCCCCCCCCCCC(=O)O)C(=O)O)C(=O)N[C@@H](CC(N)=O)C(=O)N[C@@H]([C@@H](C)O)C(=O)N[C@@H](C)C(=O)N[C@@H]([C@@H](C)O)C(=O)N1)[C@@H](C)O)C(=O)N1CCC[C@H]1C(=O)N[C@@H](CO)C(=O)N[C@@H](CO)C(=O)N[C@H](C(=O)N1CCC[C@H]1C(=O)N[C@H](C(=O)NCC(=O)N1CCC[C@H]1C(=O)N[C@@H](CC(N)=O)C(=O)N[C@H](C(=O)N[C@@H](Cc1ccc(O)cc1)C(N)=O)[C@@H](C)O)C(C)C)[C@@H](C)O) | 2.04 | 0.082 | 24.8
